Experimental data: patent publication US4937390A, “Compound useful for the production of 3-deoxy-3-fluoro-myo-inositol” (University of Pittsburgh, priority 1989, dated 1990)

Substrate: O[C@H]1[C@H](O)[C@@H](O)[C@H](O)[C@@H](O)[C@H]1O
Experiment: [3H]myo-inositol uptake by the myo-inositol transporter in PC12 cells
Type: cell-based, rat
Settings: other: Lineweaver-Burke plots, [3H]myo-inositol 25 nM with increasing unlabeled myo-inositol, 37.0 °C
Experimental: To determine if the effect of the fluoro-myo-inositol analogs might be mediated by the blockade of the myo-inositol transporter, which is responsible for uptake and accumulation of myo-inositol into the cell, the ability of these two compounds to block [^3 H]myo-inositol transport was studied directly.
The uptake of [^3 H]myo-inositol by the myo-inositol transporter was determined as follows:
PC12 cells were gently detached and maintained in a suspension culture in RPMI medium (both myo-inositol and serum free) at 37° C. ]^3 H]myo-inositol was added to this culture at a concentration of 1μCi/ml. Aliquots of this suspension were removed at the indicated time, diluted in 10 volumes of ice-cold PBS containing 10 mM unlabelled myo-inositol to stop the uptake process, centrifuged at 4° C. for 20 minutes at 50 xg. The cell pellet, which contained the transported [^3 H]myo-inositol, was dissolved in dilute NaOH and the radioactivity quantified by liquid scintillation counting.
The […] and Vmax of myoinositol were determined from LineweaverBurke plots
of the uptake of [^3 H]myoinositol (25 nM) in the presence of
increasing concentrations of unlabeled myoinositol in PC12 cells. The Ki
of the two fluoromyo-inositol analogs was determined by conducting the
uptake studies in the presence of a fixed concentration (1 mM) of each

B1: myo-inositol transporter (Rattus norvegicus) (protein)
chain: MRAVLETADIAIVALYFVLVMCIGFFAMWKSNRSTVSGYFLAGRSMTWVAIGASLFVSNIGSEHFIGLAGSGAASGFAVGAWEFNALLLLQLLGWVFIPIYIRSGVYTMPEYLSKRFGGHRIQVYFAALSLLLYIFTKLSVDLYSGALFIQESLGWNLYVSVILLIGMTALLTVTGGLVAVIYTDTLQALLMIIGALTLMVISMMKVGGFEEVKRRYMLASPNVASILLTHNLSNTNSCMVHPKADALKMLRDPTDEDVPWPGFILGQTPASVWYWCADQVIVQRVLAAKNIAHAKGSTLMAGFLKLLPMFIIVVPGMISRILFVDDIACINPEHCMQVCGSRAGCSNIAYPRLVMELVPVGLRGLMMAVMIAALMSDLDSIFNSASTIFTLDVYKLLRNNASSRELMIVGRIFVAFMVVISIAWVPIIVEMQGGQMYLYIQEVADYLTPPVAALFLLAIFWKRCNEQGAFYGGMAGFVLGAIRLILAFTYRAPECDQPDNRPSFIKDIHYMYVATALFWITGLITVIVSLLTPPPTKDQIRTTTFWSKKTVVTKESCSQKDEPYKMQEKSILRCSENSEVVSHTIPNGKSEDSIKGLQPEDVNLLVTCREEGNPVASMGHSGAETPVDAYSNGQAALMGERAREKETESRSRYWKFIDWFCGFKSRSLSKRSLRDSMDEEAVCLQMLEETPRVRVILNIGLFAVCSLGIFMFVYFSL
notes: PC12 cells were gently detached and maintained in a suspension culture; endogenous in cells; host or cells: PC12 cells
In the case of B1, the Km is reported as 45 µM and the Vmax is reported as 2.27 nmol/mg/h.
